Target: the molecule itself
Test: cryo-EM structure; electron cryotomography and subtomogram averaging of the S-layer on intact N. maritimus cells; 3.3 Å at the centre of the hexamer, about 4.5 Å at the periphery

B1: Nitrosopumilus maritimus S-layer protein Nmar_1547 (NmSLP) (natural protein)
chain: MAANANLFVSAENSQFDNYMSGPQVIEVVVIDSDINDTDEAKGEPDVTVNGKVLRMVQAVDGNWYGYFADRDQAQIADSTATTADSGLDFGVFCASSSGTAALGFSTTETDGIAIPITIANATATGNGTQTGSSSGGAITTTCAANTLDASTANGTINVVREAKDPVAASGSVSVGQIGLKNGTANSGPNWPFIQLYELNPTGNVVVQYNKGGGVQSTTLTFDTVDQFAELSLDRTVFPRVSQVHATITDLWLNIDPTDEDSWTFATNTKNTTSSFNVDTFYQVFDENGASGGSALTLRTTLSSLMCEDNCVLTLDVDAQSSGTPVVTIQDNGDSILTQLNASSNTNANNASAFGISTETAKLGTGSIPVTITEQGPNSGVFGTYDESDKSVLKITDNAKRGTSASLDYNETPQTILVGFSFASIDIQPVTDEWTSGQEIPVVIVDADQNKNSRADEDLDLNNPDVTLIPALRTGDPFTIDEGGTPSLIFTNGTNGDDSIFDTGAINNTSAGQVGNFTLNINVTRFSSATNITSTESIDTFSKRLISAQTANSSANFDVDFAIIDLGSATLETLKETVVDEDNTAVGFNFFNYDVRSLGADTVSIALLNTTGNILPWVNNDTRNVDKNNAILLVSNSTNSQAYVDLTNAVSDAVYGSTNTDSNVNIGFAMYFTGVGDLAAKEVIVMDFFSFGFTDDGVQSSERFANQIIRIEAEETGDNTSTFEGSLEYVMVNQINIQDAGTFSGITPIADDPSFIVIEDLTDEDAPRVNYNDLGADGVTTPVSDQEEAPSHSGVVSLNADSYKIADTVVITVEDLDLNVDSDLIDIFTVVSDNSKATDDAVGSATTQSLSFGELGRLLDVTFDDVIWSTPDGANNTATGNDSDTCSTELSNAGITDTGLGATGFTLVETGAATGVFVGDFQIPSFWCRVSDTTTTPYTYAGDEETTTGLDIEVNYVDFRDASGEIVEVGDSAGVRANTGSVSLDRTVYPVPFGTIADSSKAANAAPNGRSVFPIHATGITSTIDSTEELPTGDLTIHVRINDPDFDENPAGEDAMDQDNALKISVIRGSDSVVLGYAGASERTGKIDVGGNNGTISNIRSFGEMDEIAPDAGIFELDVNIKFTDGPASAQCNSHDTLYTALDGTTGKADTNRFDDGAASGQEYCILQGDILQVEYTDPADASGDANTVTDSATFDLRNGVLQSDKSVYIIGSDMILTLIEPDFDLDNDSAETYDLDLIEWDSDAATTTMGNKGVTGAAAAFDPEPTDFRETGDSTGIFQIVIEIPESLSNDKLERGEEIILEYTDWGPSGSDYVGDEDEDVNLTIYTSNFGATVELDQKVYSWTDKVYITIVAPDHNFDSDLVDEIGETDSDPIKVSTRGFDLDNYKLVETGTDTGIFTGEVILTGFTAHDADGDGNTGDATGTTSGSGPTDGLLATDDDDGLTVSFEFSEDETIVGSALIRWNIGEVQWLEASYPASGTGVVRVIDPDMNLDPEAVDNFEVDVWSDSDAGGIDLTVTETNEATGIFEGTVFFTTLDESSGHRLRVSEGDTVTAEYEDNTLPDPYTTADELDITATSLIGTVVPPLERAPAANLRTVDAFGNSLDSVSVDQQVQISADLANGQDREQSFAYLVQIQDANGVTVSLAWITGSLSSGQSFSPALSWIPTEAGTYTATAFVWESVDNPTALSPPVSTTVNVS
modifications: 17 N-glycans per monomer on asparagine residues followed by a threonine or serine at the +2 position (positions not given)
In the case of B1, the “stoichiometry N” value is reported as 6.
